Assay results: patent US20220332804A1 (CSL INNOVATION, published 2022)

Legend:
Assay in all cases: SPR, KD relative to WT C2;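 further: biacore SPR at 37 °C, anti-C2 mAbs captured on anti-human IgG chips with alanine or serine point mutants of C2 as analyte, KD from 1:1 fit compared with wild-type C2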
human C2 K415A = target: T1, human C2 K415A (human, UniProt P06681 21-752)
T1 sequence: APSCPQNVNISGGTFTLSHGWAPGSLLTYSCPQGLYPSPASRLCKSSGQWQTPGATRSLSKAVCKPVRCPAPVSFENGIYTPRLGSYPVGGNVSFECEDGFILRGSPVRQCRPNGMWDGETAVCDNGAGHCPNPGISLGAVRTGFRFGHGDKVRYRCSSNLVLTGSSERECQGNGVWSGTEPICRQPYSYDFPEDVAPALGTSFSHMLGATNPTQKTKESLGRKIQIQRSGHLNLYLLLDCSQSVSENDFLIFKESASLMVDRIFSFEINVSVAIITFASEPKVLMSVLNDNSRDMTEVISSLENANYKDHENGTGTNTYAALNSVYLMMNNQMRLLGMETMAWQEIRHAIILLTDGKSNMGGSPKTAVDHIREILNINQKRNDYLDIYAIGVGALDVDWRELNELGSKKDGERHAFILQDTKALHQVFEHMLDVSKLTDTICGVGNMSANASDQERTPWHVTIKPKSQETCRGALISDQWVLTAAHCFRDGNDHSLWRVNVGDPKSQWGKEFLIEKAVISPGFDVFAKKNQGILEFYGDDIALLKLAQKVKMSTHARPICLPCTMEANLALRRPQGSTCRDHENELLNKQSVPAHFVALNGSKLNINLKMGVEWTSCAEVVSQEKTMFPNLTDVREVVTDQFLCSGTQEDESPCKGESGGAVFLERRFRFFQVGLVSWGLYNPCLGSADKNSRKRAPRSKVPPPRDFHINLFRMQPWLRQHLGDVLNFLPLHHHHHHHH

human C2 H331A = target: T2, human C2 H331A (human, UniProt P06681 21-752)
T2 sequence: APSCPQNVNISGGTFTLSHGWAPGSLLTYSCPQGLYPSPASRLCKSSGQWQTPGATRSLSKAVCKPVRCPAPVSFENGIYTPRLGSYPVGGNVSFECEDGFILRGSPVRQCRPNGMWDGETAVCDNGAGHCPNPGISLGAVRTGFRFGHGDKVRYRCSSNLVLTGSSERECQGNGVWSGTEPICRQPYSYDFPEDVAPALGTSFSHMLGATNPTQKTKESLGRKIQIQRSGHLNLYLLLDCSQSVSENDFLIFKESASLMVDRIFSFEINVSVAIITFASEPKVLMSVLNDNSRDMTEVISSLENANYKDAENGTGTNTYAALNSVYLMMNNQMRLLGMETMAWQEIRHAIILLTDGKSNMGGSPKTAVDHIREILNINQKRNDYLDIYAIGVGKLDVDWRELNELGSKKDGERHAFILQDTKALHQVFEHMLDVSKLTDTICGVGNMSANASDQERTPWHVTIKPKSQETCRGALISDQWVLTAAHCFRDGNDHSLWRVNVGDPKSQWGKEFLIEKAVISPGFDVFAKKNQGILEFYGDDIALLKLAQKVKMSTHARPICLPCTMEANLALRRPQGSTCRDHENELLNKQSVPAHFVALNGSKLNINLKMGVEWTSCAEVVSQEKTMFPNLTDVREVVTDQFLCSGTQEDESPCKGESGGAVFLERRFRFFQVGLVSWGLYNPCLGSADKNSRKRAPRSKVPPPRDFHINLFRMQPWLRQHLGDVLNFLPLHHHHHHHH

human C2 G414A = target: T3, human C2 G414A (human, UniProt P06681 21-752)
T3 sequence: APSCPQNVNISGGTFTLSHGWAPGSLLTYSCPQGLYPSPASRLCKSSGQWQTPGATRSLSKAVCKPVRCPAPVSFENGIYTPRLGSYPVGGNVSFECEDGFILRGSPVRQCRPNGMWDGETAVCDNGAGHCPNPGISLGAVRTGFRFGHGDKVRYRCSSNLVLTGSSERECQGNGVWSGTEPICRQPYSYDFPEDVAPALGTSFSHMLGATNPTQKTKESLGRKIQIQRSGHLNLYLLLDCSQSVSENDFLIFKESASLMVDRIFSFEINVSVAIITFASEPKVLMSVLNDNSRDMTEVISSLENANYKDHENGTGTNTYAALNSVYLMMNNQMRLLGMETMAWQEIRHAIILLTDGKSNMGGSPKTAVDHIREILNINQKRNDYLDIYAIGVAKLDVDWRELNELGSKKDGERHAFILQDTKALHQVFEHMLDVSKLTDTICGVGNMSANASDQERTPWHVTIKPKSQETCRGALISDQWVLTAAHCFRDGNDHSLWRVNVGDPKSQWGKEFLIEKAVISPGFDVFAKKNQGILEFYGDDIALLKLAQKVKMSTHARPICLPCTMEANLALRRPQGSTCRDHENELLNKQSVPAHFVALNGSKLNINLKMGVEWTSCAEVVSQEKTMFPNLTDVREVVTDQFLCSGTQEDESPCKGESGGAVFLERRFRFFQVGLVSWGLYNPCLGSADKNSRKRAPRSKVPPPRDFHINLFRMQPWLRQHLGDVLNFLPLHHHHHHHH

human C2 L620A = target: T4, human C2 L620A (human, UniProt P06681 21-752)
T4 sequence: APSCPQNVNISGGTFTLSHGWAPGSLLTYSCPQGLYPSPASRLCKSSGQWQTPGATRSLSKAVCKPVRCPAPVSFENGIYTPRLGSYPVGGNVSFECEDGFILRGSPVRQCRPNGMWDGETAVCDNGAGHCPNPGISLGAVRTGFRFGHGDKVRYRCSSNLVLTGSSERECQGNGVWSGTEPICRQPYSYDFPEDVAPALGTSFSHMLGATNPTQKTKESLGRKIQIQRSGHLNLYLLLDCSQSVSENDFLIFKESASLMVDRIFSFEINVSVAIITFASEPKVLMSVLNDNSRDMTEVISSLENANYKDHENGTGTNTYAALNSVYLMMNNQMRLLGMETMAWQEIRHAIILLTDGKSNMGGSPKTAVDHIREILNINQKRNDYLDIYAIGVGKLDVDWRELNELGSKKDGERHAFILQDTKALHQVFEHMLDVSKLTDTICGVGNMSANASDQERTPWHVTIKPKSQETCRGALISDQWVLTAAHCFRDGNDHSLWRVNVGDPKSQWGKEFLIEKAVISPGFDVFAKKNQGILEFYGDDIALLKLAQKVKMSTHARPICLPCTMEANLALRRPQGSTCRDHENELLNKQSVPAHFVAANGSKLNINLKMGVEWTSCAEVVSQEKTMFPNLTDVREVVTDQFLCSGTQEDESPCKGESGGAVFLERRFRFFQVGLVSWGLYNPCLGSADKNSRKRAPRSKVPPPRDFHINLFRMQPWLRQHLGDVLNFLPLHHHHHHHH

B1: RF16-242 (antibody, human IgG4 S228P, lambda, V domains shown)
VH: EVQLLQSGAEVKKPGESLKISCKGSGYSFTSYWIGWVRQMPGKGLEWMGIIYPGDSDTRYSPSFQGQVTISADKSISTAYLQWSSLKASDTAMYYCARRGHYGDYFDYWGQGTLVTVSS
VL: SYELTQPPSVSVSPGQTARITCSGDALPKKYAYWYHQKSGQAPVLVIYEDRRRPSEIPERFSGSSSGTMATLTITGAQVEDEGVYFCYSRDRAGNQRVFGGGTQLTVLG
notes: pH-dependent anti-C2 antibody from a phage display library
Fold diff (human C2 K415A): 1 fold
Fold diff (human C2 H331A): 27 fold
Fold diff (human C2 G414A): 1 fold
Fold diff (human C2 L620A): 1 fold
